Our source for the enrichment score values is patent publication US20230151068A1.

Changes are numbered by the printed parent chain. Numbers in names are those of the source.

The labels stand for the following.
B1: I05T variant of SEQ ID NO: 1 (designed binder)
chain: GSPDEYTERAKECCKKGDIQCCLRYFEESGDPNVMLICLFCP
B2: E10T variant of SEQ ID NO: 1 (designed binder)
chain: B1 chain with T7I, E12T
B3: E03L variant of SEQ ID NO: 1 (designed binder)
chain: B1 chain with E5L, T7I
B4: E10L variant of SEQ ID NO: 1 (designed binder)
chain: B1 chain with T7I, E12L
B5: E03I variant of SEQ ID NO: 1 (designed binder)
chain: B1 chain with E5I, T7I
B6: Y04L variant of SEQ ID NO: 1 (designed binder)
chain: B1 chain with Y6L, T7I
B7: K09A variant of SEQ ID NO: 1 (designed binder)
chain: B1 chain with T7I, K11A
B8: R07A variant of SEQ ID NO: 1 (designed binder)
chain: B1 chain with T7I, R9A
B9: D02V variant of SEQ ID NO: 1 (designed binder)
chain: B1 chain with D4V, T7I
B10: P01V variant of SEQ ID NO: 1 (designed binder)
chain: B1 chain with P3V, T7I
B11: I05L variant of SEQ ID NO: 1 (designed binder)
chain: B1 chain with T7L
B12: E06T variant of SEQ ID NO: 1 (designed binder)
chain: B1 chain with T7I, E8T
B13: E10I variant of SEQ ID NO: 1 (designed binder)
chain: B1 chain with T7I, E12I
B14: I05V variant of SEQ ID NO: 1 (designed binder)
chain: B1 chain with T7V
B15: Y04V variant of SEQ ID NO: 1 (designed binder)
chain: B1 chain with Y6V, T7I
B16: A08T variant of SEQ ID NO: 1 (designed binder)
chain: B1 chain with T7I, A10T
B17: R07T variant of SEQ ID NO: 1 (designed binder)
chain: B1 chain with T7I, R9T
B18: P01A variant of SEQ ID NO: 1 (designed binder)
chain: B1 chain with P3A, T7I
B19: D02I variant of SEQ ID NO: 1 (designed binder)
chain: B1 chain with D4I, T7I
B20: R07V variant of SEQ ID NO: 1 (designed binder)
chain: B1 chain with T7I, R9V
B21: K09L variant of SEQ ID NO: 1 (designed binder)
chain: B1 chain with T7I, K11L
B22: P01L variant of SEQ ID NO: 1 (designed binder)
chain: B1 chain with P3L, T7I
B23: R07I variant of SEQ ID NO: 1 (designed binder)
chain: B1 chain with T7I, R9I
B24: A08L variant of SEQ ID NO: 1 (designed binder)
chain: B1 chain with T7I, A10L
B25: R07L variant of SEQ ID NO: 1 (designed binder)
chain: B1 chain with T7I, R9L
B26: E06A variant of SEQ ID NO: 1 (designed binder)
chain: B1 chain with T7I, E8A
B27: E10A variant of SEQ ID NO: 1 (designed binder)
chain: B1 chain with T7I, E12A
B28: I05A variant of SEQ ID NO: 1 (designed binder)
chain: B1 chain with T7A
B29: E06V variant of SEQ ID NO: 1 (designed binder)
chain: B1 chain with T7I, E8V
B30: P01I variant of SEQ ID NO: 1 (designed binder)
chain: B1 chain with P3I, T7I
B31: A08I variant of SEQ ID NO: 1 (designed binder)
chain: B1 chain with T7I, A10I
B32: K09I variant of SEQ ID NO: 1 (designed binder)
chain: B1 chain with T7I, K11I
B33: Y04A variant of SEQ ID NO: 1 (designed binder)
chain: B1 chain with Y6A, T7I
B34: E06I variant of SEQ ID NO: 1 (designed binder)
chain: B1 chain with T7I, E8I
B35: K09T variant of SEQ ID NO: 1 (designed binder)
chain: B1 chain with T7I, K11T
B36: E03V variant of SEQ ID NO: 1 (designed binder)
chain: B1 chain with E5V, T7I
B37: E03A variant of SEQ ID NO: 1 (designed binder)
chain: B1 chain with E5A, T7I
B38: Y04I variant of SEQ ID NO: 1 (designed binder)
chain: B1 chain with Y6I, T7I
B39: D02A variant of SEQ ID NO: 1 (designed binder)
chain: B1 chain with D4A, T7I
B40: E06L variant of SEQ ID NO: 1 (designed binder)
chain: B1 chain with T7I, E8L
B41: D02L variant of SEQ ID NO: 1 (designed binder)
chain: B1 chain with D4L, T7I

The test concerns the target biotinylated His-Avi-TEAD (194-411) (UniProt P28347). Nature of the test: SSM screen, enrichment after two rounds of sorting.
For B1, the enrichment score is -1.77.

B2: the enrichment score was -1.57.

B3 returned an enrichment score of 0.32.

B4: the enrichment score was -1.83.

As to B5, the enrichment score was -0.26.

For the molecule B6, the enrichment score was -1.81.

For B7, the enrichment score was -1.27.

The molecule B8 yielded an enrichment score of 0.28.

With B9, the enrichment score was -2.34.

As to B10, the enrichment score was -0.59.

For the molecule B11, the enrichment score was -0.38.

As to B12, the enrichment score was -0.92.

Turning to B13, the enrichment score was -0.65.

Turning to B14, the enrichment score is -0.27.

Regarding B15, the enrichment score was -0.75.

For the molecule B16, the enrichment score was -3.84.

On to B17, for which the enrichment score was -4.07.

As for B18, the enrichment score amounted to 0.36.

For the molecule B19, the enrichment score is -0.7.

For B20, the enrichment score was -2.31.

In the case of B21, the enrichment score was -11.2.

As for B22, the enrichment score was -2.9.

Regarding B23, the enrichment score was -3.98.

Turning to B24, the enrichment score was -9.93.

For B25, the enrichment score was -0.39.

Regarding B26, the enrichment score is -0.68.

B27: the enrichment score was -0.24.

Consider B28, for which the enrichment score is -1.2.

For the molecule B29, the enrichment score was -1.55.

Take B30: the enrichment score is -2.27.

As to B31, the enrichment score was -8.31.

For B32, the enrichment score was -3.03.

Take B33: the enrichment score amounted to 0.26.

As for B34, the enrichment score is -1.56.

The molecule B35 displayed an enrichment score of 2.68.

Turning to B36, the enrichment score was -1.39.

Regarding B37, the enrichment score is -2.02.

As for B38, the enrichment score was -0.41.

Consider B39, for which the enrichment score is -1.43.

For the molecule B40, the enrichment score is -0.4.

Take B41: the enrichment score was -3.53.
